Test results as given in PMC5562816, “Rap1 and Cdc13 have complementary roles in preventing exonucleolytic degradation of telomere 5′ ends”.

Target: T1, Rap1 (Naumovozyma castellii, UniProt Q96VU6 1-826)
T1 sequence: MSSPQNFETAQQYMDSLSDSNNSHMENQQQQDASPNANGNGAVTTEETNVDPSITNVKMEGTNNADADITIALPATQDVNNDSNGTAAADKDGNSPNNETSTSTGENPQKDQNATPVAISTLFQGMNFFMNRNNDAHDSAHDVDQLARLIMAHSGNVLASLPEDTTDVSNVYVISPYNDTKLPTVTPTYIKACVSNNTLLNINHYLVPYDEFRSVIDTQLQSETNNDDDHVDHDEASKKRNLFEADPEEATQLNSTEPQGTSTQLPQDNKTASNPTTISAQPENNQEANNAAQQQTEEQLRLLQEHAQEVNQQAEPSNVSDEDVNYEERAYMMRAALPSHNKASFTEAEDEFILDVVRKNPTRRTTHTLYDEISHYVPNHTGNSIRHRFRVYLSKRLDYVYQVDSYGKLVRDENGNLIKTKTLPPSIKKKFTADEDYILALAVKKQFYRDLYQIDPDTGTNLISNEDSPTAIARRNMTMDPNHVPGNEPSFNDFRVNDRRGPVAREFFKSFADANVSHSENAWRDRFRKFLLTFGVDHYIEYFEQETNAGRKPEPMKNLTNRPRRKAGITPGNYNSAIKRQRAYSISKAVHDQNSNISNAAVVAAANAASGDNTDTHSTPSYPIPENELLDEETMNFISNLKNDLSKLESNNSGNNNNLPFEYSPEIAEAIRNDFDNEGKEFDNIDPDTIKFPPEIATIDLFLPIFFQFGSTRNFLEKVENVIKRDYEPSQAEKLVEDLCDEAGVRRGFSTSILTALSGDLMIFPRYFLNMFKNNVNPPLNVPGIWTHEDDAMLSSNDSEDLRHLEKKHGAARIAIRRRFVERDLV
Assay: EMSA; EMSA: 10 fmol probe, 1.5 ug competitor mix (E. coli DNA, salmon sperm DNA, yeast tRNA), 1x lambda-exonuclease buffer (67 mM glycine-KOH pH 9.4, 2.5 (unit not given) MgCl2, BSA 50 ug/ul as printed), 8% glycerol, 15 ul, 25 C 15 min; gel 6% in 1x TBE at 4 C
Conditions: protein: recombinant; tags: N-terminal 6xHis; label: 32P 3'-deoxy-ATP added to 3' end of C-strand; 3' overhang 9 nt; other end blunt

B1: D17S9m (mixed)
DNA 1: GTCACACGTCACACTCTGGGACTCTCCGTGTCTGGGTGTC
DNA 2: ACACGGAGAGTCCCAGAGTGTGACGTGTGAC
modifications: 5'-phosphate on C-strand (DEPA substrate)
  binding result: no binding
